# Laboratory results taken from PMC4339890 (Nature Communications, 2015).
# Target: the molecule itself
# Test: not stated; PAXX 1-145 in solution (Supplementary Fig. 2)
protein,measurement,value
"PAXX N-terminal fragment (1–145) (domain or fragment, human, UniProt Q9BUH6 1-145, looked up, A SeMet-labelled double mutant L57M/L105M of the same limits was used for phasing only; source: E. coli (pETDuet-1), purified (nickel beads, HiTrap Q, Superdex 200 gel filtration)) MDPLSPPLCTLPPGPEPPRFVCYCEGEESGEGDRGGFNLYVTDAAELWSTCFTPDSLAALKARFGLSAAEDITPRFRAACEQQAVALTLQEDRASLTLSGGPSALAFDLSKVPGPEAAPRLRALTLGLAKRVWSLERRLAAAEET",stoichiometry N,2
